This note sets out measurements from doi:10.1101/2025.02.03.636245.

The target of the test is OdinSepF (Candidatus Odinarchaeota). Kind of test: SEC-MALS. (In gel filtration, larger molecules generally elute earlier.)

OdinSepF (natural protein): the stoichiometry N – broadly, a count of units in the complex or per binding partner – stood at 2.
